The record followed here is a protein production outcome set (Wang et al. 2014).

A short description of the data set: label from the status in PepcDB records.
In the case of “MGRKNSPSERERELQNLIAQYEAVKAKNESLYLDGDQLADIADLYASERKFKEAQEVITYGLGLHPGHTDLMVEQAYLFLDLNQPQKAKEVAELITDTYSSNVKLLLAELLLNEGKLDAADQMLDSIEEEEKNDLGILVDIVYLYTDLGYPEKGVQWLKRGAEMYKDDEDFLAATADCYGAAGAEYIEQAIVVFNKLIDKNPYNPAYWVGLAKCQFATKDFDKAIESCDFAIAADEEFGEAHIIKAHSLFHLENIEGAIVEYRKALKYKTLSPEFTYMFIGLAYTQQENWAEANESYSMALRAIEENGNGSSPLLSDIYSNKALCASRQGDSEEAHRLCRLAKELAPQDAEPYLLEGRIYMEEDNFDLARAEWALALRYAPEADTWMEIGNYSLEFRMLENARFCFEQVLEEDPEYPKICEQLAAVCLVLQDHEGFKKYNAMSGDSINLDSLRDTILEMGVDGEQMLRELDDFLKDEK”, the protein production entry is on record as “failed”.
The value for “MSGQHGHDHSHAVVTQGNAKKLTIALSLTVTFLIVEVVAGFITQSLALLSDAAHMFTDAAALAIALAAIQVAKRPADDKRTFGYQRFEILAALFNASMLFMVAIYILYEAYQRFTHPPEIQSLGMLLVAVIGLIINLISMKILVSSAQDSLNVKGAYLEVLSDALGSVGVILGALVIYFTQWYWVDTLVAVLIGFWVLPRTWILLKQSINILLEGVPEEVDIEKLRDDLLALEGVESIHQLKVWAITSKNVHLTVHLFAPQADRNRLYRTAYEMLSHEHGIAEITLQIEEDECLAHSHTHIEKNHQH” was “failed”.
Take “MSNYAAGLGKPGSGKRRIRDLLNQPDNRVCADCGASVPKWAKYQSIHLLKSCGVHRSLGTHILKVLSVTLDEWSDEEVDSMIETGGNASANSIYEAFVPDTCSKPGPDVNHDQRMRFIR”: the protein production entry is “failed”.
The value for “MALDSPVGRRLGLVLQSRSNGVGPDQLFGDSELDHRAVCVIGEKGAERLAGPERGVVGRDSLCCVHTRPYGLWPLHWPRPAAATTLSRPAILTPRTATRTCMTEATGIVGEFLTLKEGTDADLLAMQCGDFYEFFAEDAEIVADELDLKVSQKSSHGSSYPMAGVPVDDLTPYVSALVERGYRVAIADQHETENGHAREITRVVTPGTHLETGDESAQYLAAVVREASRDSGDTYGIAATDVTTGQFQVTQLDDADAGEALTELYTFGPAEILPGPELRNDDEFLDRLRERTDAALTLHDSASFEPGRASHTVREQFGSETVDSVGIGDQNVAVRAAGAVLSYVEDTGVGTLAAVTRLQAYGERDHVDLDATTQRNLELTETMQGDSSGSLFDTIDHTVTAAGGRLLQQWLQRPRRNRAELQRRQSCVAALSEAAMARERIRETLSDAYDLERLAARATSGSADARDLRAVQETLALLGQVADAVTETERLAESPLADALDGADREAADSLAAELDSALVADPPGTVRQGGLFKRGHDDDLDEIIDEHEAALEWLETLPDREKERTGITHLSVDRNKTDGYYIQVGKSETDAVPEKYQHIKTLKNSKRYTTPELDEKERDVLRLEERRHDMEYEHFQRLRARVAEHATLLQDVGRTLAELDAFASLAVHAVENDWARPAVVDGNELSIEAGRHPVVEQTTEFVPNDLYMDDDRQFLIVTGPNMSGKSTYMRQAALITLLAQVGSFVPARSATVGLVDGIFTRVGALDELAQGRSTFMVEMQELSNILHSATEESLVILDEVGRGTATFDGISIAWAATEYIVNSIQSKTLFATHYHELTALGEELPTVENVHVAVDGEPRSAGSDGDVTFLRTVRDGPTDRSYGVHVADLAGVPEPVVDRSQAVLDRLRDDKAIEIRGSEQNDGGTTQAVFDLDSGQFRDGAAQSGGAAAGSTAEPVATDGDPEHAPGEAAAEGPKGDERAASLDSETEAVLSELTELDVNETPPVELMAKVQEWQAELDDE” was “failed”; that for “QISTPVIRVWDGILALPIIGTLDSSRTQVVMESLLQEIVDTGSSIAILDISGVPAVDSLVAQHLIKTVSATRLMGAECIISGIRPEIAQTVVHLGIDLSTIITKATLASALKTA” was “failed”; that for “MILYVFLFFVGLLLLYLGAEGLIQGASSIALQYGIRPVILGLTVVALGTSMPEYLVNVFALISGESPLAIGNIIGSNISNVALILGACAVVLPLAVTPEVLRREYPVMLGVMVLFYLCALDGVIGARDGVLMVVLLSGLAAYVFYDAHRTTRGTVLESMEGELDAADPDLSTLAKAVYVIGGMGGLTLGAHLMVDNALAISDVLNIDHVVIGLTVVAIGTSLPELAASMVGTLKQEVDMTVGNVIGSNLLNVLFVVGTLAIAEPITVDPETIRLHFPVMLGFCALLVPLTWWDQKITRVEGAFMVIAFLGFMVFLYV” was “failed”.
For “MPPTQAESVIRSIIREIGQECAAHGEIVSETLIAFMVKAVVLDPSNGFNMDRTLMKSDVQNLVKLCMTRLLDTKNPSLDTIKMQVYFDMNYTNRVEFLEEHHRVLESRLGSVTREITDNRACAKEELESLYRKIISYVLLRSGLGSPTDIKTVREVTAALQSVFPQAELGTFLTLSKKDKERQLKELTMIVTGIRLFNRDCGKGGEGIDDLPAVLHVAIPATMQHIDYQLETARSQVYRYTAILEKAANDPLMRAELQPYMLKEALYNIRQYEVFLQIILSDIITGAQEVEMMTKQLGAHLEQLKMTIKSKIAVPTSQVFPIFIALSTLWTSLQDETIVVGVLSNLFTHIQPFLGAHELYFPERVMQCHLNGATVKTDVCRMKEHMEDRVNVADFRKLEWLFPETTANFDKLLIQYRGFCAYTFAATDGLLLPGNPAIGILKYKEKYYTFNSKDAAYSFAENPEHYIDIVREKAKKNTELIQLLELHQQFETFIPYSQMRDADKHYIKPITKCESSTQTNTHILPPTIVRSYEWNEWELRRKAIKLANLRQKVTHSVQTDLSHLRRENCSQVYPPKDTSTQSMREDSTGVPRPQIYLAGLRGGKSEITDEVKVNLTRDVDET”, the protein production entry is “failed”.
Turning to “VAKMRFIDIGANLLDEMYTGQYNDKPYHPPDLSAVLERAWAAGLEKLMITAGSLKEARAALELAKTDERLYCTVGCHPTRCKEFEDHPGGPEAYLQELLEVLKEGQALGKVVAVGECGLVATDYERLHFCDADTQKKYFEAQFRLAKESGLPMFLHLRAAADDFLDITGRHLGDFPRGGVVHSFDGTAEEAARVLAVPQLAIGINGCSLKTDDNLAVVGGLPLERIMLETDCPWCEIRPTHAGRKHVSAEALAGVTGAKDRKKFMPGCQVKSRNEPANIRQVLEVVAGVKGRTDLEAVADVIFGNTERMFFPTA”, the protein production result is listed as “not failed”.
The value for “SNSALYNVDAGHRAVIFDRFRGVQDIVVGEGTHFLIPWVQKPIIFDCRSRPRNVPVITGSKDLQNVNITLRILFRPVASQLPRIYTSIGEDYDERVLPSITTEILKSVVARFDAGELITQRELVSRQVSDDLTERAATFGLILDDVSLTHLTFGKEFTEAVEAKQVAQQEAERARFVVEKAEQQKKAAIISAEGDSKAAELIANSLATAGDGLIELRKLEAAEDIAYQLSRSRNITYLPAGQSVLLQLPQ” was “not failed”; that for “MMHISVGATEMSWLSSLKSVFSPSQEVKEDDVQTILQSYSLENSSFVLKDRITQINVEGRILQLTIKTFPEEADHLQQIHDELADALQKAGIQELNLHVIQQKTAPRTEPKSSSSTTSSSSHLPPVVDASASPTPDPNNPPIQKKAPIQSEVPAHPRIKNVILVSSGKGGVGKSTTTVNLALALQKQGLKVGVLDADIYGPSIPTMLGNAGRTPKIENENFVPLDAYGLAVLSIGHLTGDNNTPVAWRGPKATGALMQLFNQTLWPDLDVLVIDMPPGTGDIQLTLAQRIPVTGALIVTTPQNVALLDASKGIELFNRVGIPVVGVIENMSTHICSNCGFEEQIFGVGGGDKLSEQYDIPLLGRLPLNAQIRENADKGQPSVIAQDTAAESYQMIAQALWTRVEQLPQRARDDKRIFLEHHHHHH” was “failed”.
With “MLYNSYMLLTYQFKLNPTSEQVVILETWGELLRRHWNYALGERLDWLRRTRSLLDRCSLVSEPIGGIPDKPDYYTQASDLQQTKDLFPDYKNIYADCQQQNLMRLDKAWKRWLIPDKKGNRGGKPRFKKRGDISSFTFPRVNSPKAGAHLTGNILKLSKIGEIEVILHRPIPNGSEIKQATILSKSDGWYVSFSLEDKTVPELLPIDEIKTATGIDVGLEKFLTTAHGQSIEVPQYSRKTQSKLARQQRKLARKIHGSKNYQKQASRVARIHLHVARQRKEFHYQVAHWLVKSYDLIVFENLNIRGLARTRLAKSILDVAWGAFLQIMQAVAVRRGKHTRGVDPRGTSINCSGCGQRVEKTLAVRVHNCSCGLVIDRDWNSAINLLNYGSVGLPIPGCGGLGVSQPVKQQVSYVNLRCSRYTACS” the entry was “failed”; with “MLKLSNFGPGALVAAAFIGPGTVVTASLAGANFGYALLWALLFSVVACVILQEMSARIGLVTQAGLGENIRNNLTSGWLRWLALLLIFSAIAIGNSVYQGGNLSGASLGASELLGPVPVLDVWLSNAWALIIGIIALLILWSGNARVIERALIVMVLLMSVAFIGTFLLTDPDWGAVFNGTFGFSMPTGATLTVVALIGTTVVPYNIFLHASSVSKKWKTAEELPAARRDLFLSIPFGGLISMAIVATAASAFFGQQVEIESAGDLAESLRPLFGDGATYLMAIGLFAAGISSATTAPLASAYALCGIMGWSVNLRSRAFRIIWFTILVIGIIISSVGIKPVTVIWFAQVANGILLPIIVGFLWWLCQSPLLGKYRNSLLQNILAAIIFLISVVLSGRSLGSAFGFW”, “failed”; with “MAETIISLLSPTLDIKSPYYFNPDYLHQFNMHTNTAIDKLSEAKDNYAIWKLRFFDLLQFTNKTGFIDGTLPKPDPSSPYYEPWKQCNAIVLHWLSNTVTDTLQNHVLQAETVHKAWEDLRRIFVPCIDFKIYELRQRLATLRQGGDSVAEYFGKLSKAWLELKAYDPVQECKCGGCDCESEKRATEAREKEQRYAFLMGLNKEFDYVKMKVMHKKIPPSVYQAYEMVVYSEAMMKWKMGGRI”, “failed”.
Turning to “MISGFSMHSSAHYRQLLARLPQIAVAADQFEVLNSAKDFKSRILSLIASARQRIYLVALYLQDDEAGREILSALYAAKQRNPALDVKVFVDFHRAQRGLIGKGKQGGNHLMYQEMAARHEHQIAIYGVPVKGRELLGVLHLKGFIFDDTLLYSGASLNDIYLHQQDRYRFDRYHQITSPELTRSMVNYVDDLFLRSEAVQRLDRTDIPSAKQLKGPIRRFKHNLRLGQYRFDTMPVNSQEVAITPMSGLGKRGNQLNKMIRTLVRATEREIFICTPYFNPPKELNKDIEALLKRGCKVTIVVGDKTANDFFIPPEEKFSTIGGLPYLYETNLRKFAERNQHHIDAGRLNLMLWCCERNSYHLKGIFVDDEWALLTGNNLNPRAWALDLENGLLVYDRRHLLRPQFNAERENILANTKRISHFDQIEQIQDYPDQVRKLLARIHRVKAHILLKRII”, the protein production entry is given as “failed”.
With “MLNLFILLLERVGLIILIAYILMNINHFKTMMNEREKRRSQWQLIIIFGCFSMISNFTGIQIRGDEIINGTVYNHLDPDASLANTRVLTIGVSGLIGGPFVALAVAVISGMYRVYIGGADAYIYLISSIFIALISGYFGYKAMRANRYPTIVKGACIGGTTEIIQMLCILLFSDNTEHAWTLVKLIAIPMISINSIGTAIFLSIILSTIKQEEETRAIQTHDVLQLANQTLPYFRSGLNEQSAKKAAEIILNLMRVSAVAITNRKDILTHVGVASDHHVAQKAIITNLSKRAIQSGTLKEAYSSEEIGCNHPGCPLEAAIVVPLRVKNDVVGTLKLYFTNKYDVNYSDKQLATGLAEIFSSQLELGQAETQSALIRDAEIKSLQAQVNPHFFFNAINTISALIRIDSEKARELLLQLSQFFRSNLQGARNNTISLEKELQQVESYLSLEQARYPDRFNVSFDIDRTCYGALVPPFAIQILVENAIKHAFKNRKYNNEIIVKAHKAQTGLVISVSDNGHGIPYEKLDKIGKTSVHSESGTGSALENLNRRLDGLFGYEASLQIHSDHQGTQVSCTIPYHNLEEEKIESNHCR” the entry was “failed”; with “MPELKVVVSIKQVPDVDELRIDPVTNNLVREGVPAVINPPDLHAIEEAVRLKERYGAKTIVITMGPPQADSALREALAMGIDEAYLISDRAMAGADTWATSYTISKAVQKLGGADLILFGRRAVDGETEQVGPQTGKWLGLPVIGYVSEIKSLEKDKIVVTRTTEFDEEVIEAPVPVVLTILEVANKPRQPDILSLIKAKTAKVTVWNKDDIKAEPNKIGLAGSPTKVIKVQPPPKTRKAEIIDGKKDVEKAAKWFLDKIFESLKE”, “failed”.
